Data on four molecules can be found in patent US20140087995A1 (published 2014).

In assay [1] the target is T1, rat amylin receptor (rat calcitonin receptor + rat RAMP 3) (rat, UniProt P32214 25-516; Q9JJ73 23-147).
T1 construct: whole, on cells; Used as membranes prepared from BHK tk'ts 13 cells transiently transfected with rat calcitonin receptor and rat RAMP 3 (Assay VI); also called rAmylin-R; rat amylin 3(a) receptor
T1 sequence (looked up) 1: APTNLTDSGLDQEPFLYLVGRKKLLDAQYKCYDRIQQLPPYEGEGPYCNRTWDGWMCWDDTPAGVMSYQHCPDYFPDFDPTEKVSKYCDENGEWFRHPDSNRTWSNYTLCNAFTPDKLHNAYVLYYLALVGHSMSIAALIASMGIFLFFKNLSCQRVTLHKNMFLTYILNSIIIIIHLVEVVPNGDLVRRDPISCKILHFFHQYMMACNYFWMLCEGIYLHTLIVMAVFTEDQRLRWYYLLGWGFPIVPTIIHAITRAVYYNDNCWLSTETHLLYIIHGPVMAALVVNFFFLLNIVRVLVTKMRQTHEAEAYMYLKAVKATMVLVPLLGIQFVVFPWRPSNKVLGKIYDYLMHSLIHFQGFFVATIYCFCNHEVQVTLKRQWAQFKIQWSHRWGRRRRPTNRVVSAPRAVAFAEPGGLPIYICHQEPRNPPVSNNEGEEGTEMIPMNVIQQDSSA
T1 sequence (looked up) 2: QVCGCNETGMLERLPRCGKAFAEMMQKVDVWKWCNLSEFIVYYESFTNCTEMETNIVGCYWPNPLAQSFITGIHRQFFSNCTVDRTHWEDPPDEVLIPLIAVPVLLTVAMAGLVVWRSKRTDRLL
The assay can be described thus: SPA competition with 125I-rat amylin, membranes of BHK cells with rat CTR + rat RAMP3 (Assay VI).

The target in assay [2] is T2, human calcitonin receptor (human, UniProt P30988 25-474).
T2 construct: whole, on cells; Used as membranes prepared from a BHK tk'ts 13 cell line stably transfected with the human calcitonin receptor (Assay VII); also called hCTR; hCT
T2 sequence (looked up): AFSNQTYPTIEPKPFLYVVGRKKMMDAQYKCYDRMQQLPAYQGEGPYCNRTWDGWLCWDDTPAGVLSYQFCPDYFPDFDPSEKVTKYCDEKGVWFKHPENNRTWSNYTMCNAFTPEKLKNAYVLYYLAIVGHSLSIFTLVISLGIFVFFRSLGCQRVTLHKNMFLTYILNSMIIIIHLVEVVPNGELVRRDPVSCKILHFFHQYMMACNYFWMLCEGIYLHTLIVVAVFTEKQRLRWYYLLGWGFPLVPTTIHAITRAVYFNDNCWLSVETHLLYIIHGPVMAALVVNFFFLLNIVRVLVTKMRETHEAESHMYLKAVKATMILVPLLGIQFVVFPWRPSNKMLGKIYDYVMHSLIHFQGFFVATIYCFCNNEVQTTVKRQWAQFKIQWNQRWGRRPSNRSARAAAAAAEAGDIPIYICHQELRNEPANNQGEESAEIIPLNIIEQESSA
The assay can be described thus: IC50 on human CTR divided by IC50 on human amylin receptor (Assays VII/V). Summed up: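 IC₅₀ values were derived by one-site competition analysis of SPA counts. Cell membranes (35 ng/μL) with SPA beads were incubated with test compounds for 120 min at 25° C in Hepes buffer, pH 7.4, containing CaCl2, MgCl₂, OA and Tween20.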

Assay [3] deals with T3, rat calcitonin receptor (rat, UniProt P32214 25-516).
T3 construct: whole, on cells; Used as membranes prepared from BHK tk'ts 13 cells transiently transfected with the rat calcitonin receptor (Assay VIII); also called rCTR; rat calcitonin (a) receptor
T3 sequence (looked up): T1 sequence (looked up) 1
The assay can be described thus: IC50 on rat CTR divided by IC50 on rat amylin receptor (Assays VIII/VI).

In assay [4] the target is T3, rat calcitonin receptor. The assay can be described thus: SPA competition with 125I-calcitonin, membranes of BHK cells with rat CTR (Assay VIII).

Numbered stars: 1 amine (or outer) side, 2 acyl side, 3 side chain; on linkers, the order of the positions; unused ones are H or OH. Bridge positions count the residues as written; N and C are the ends. Side chains are listed from the residue outwards. Ends that are not written are not given here. * marks the point of attachment. C20 diacid = O=C(O)CCCCCCCCCCCCCCCCCCC(=O)*; γGlu = O=C(O)[C@H](CCC(=O)[*:2])N[*:1]; AEEA = NCCOCCOCC(=O)O

B1: N^ε1-[2-[2-[2-[[(4S)-4-carboxy-4-(19-carboxynonadecanoylamino)butanoyl]amino]ethoxy]ethoxy]acetyl]-[Ser14,Arg17,Pro21,Pro27,Pro31]-h-amylin (peptide)
peptide: K([AEEA-γGlu-C20 diacid])CNTATCATQRLASFLRHSSPNFGAIPSSTPVGSNTY-NH2
modifications: disulfide 2-7; N-terminus assumed
SMILES: CC[C@H](C)[C@H](NC(=O)[C@H](C)NC(=O)CNC(=O)[C@H](Cc1ccccc1)NC(=O)[C@H](CC(N)=O)NC(=O)[C@@H]1CCCN1C(=O)[C@H](CO)NC(=O)[C@H](CO)NC(=O)[C@H](Cc1c[nH]cn1)NC(=O)[C@H](CCCNC(=N)N)NC(=O)[C@H](CC(C)C)NC(=O)[C@H](Cc1ccccc1)NC(=O)[C@H](CO)NC(=O)[C@H](C)NC(=O)[C@H](CC(C)C)NC(=O)[C@H](CCCNC(=N)N)NC(=O)[C@H](CCC(N)=O)NC(=O)[C@@H](NC(=O)[C@H](C)NC(=O)[C@@H]1CSSC[C@H](NC(=O)[C@@H](N)CCCCNC(=O)COCCOCCNC(=O)CC[C@H](NC(=O)CCCCCCCCCCCCCCCCCCC(=O)O)C(=O)O)C(=O)N[C@@H](CC(N)=O)C(=O)N[C@@H]([C@@H](C)O)C(=O)N[C@@H](C)C(=O)N[C@@H]([C@@H](C)O)C(=O)N1)[C@@H](C)O)C(=O)N1CCC[C@H]1C(=O)N[C@@H](CO)C(=O)N[C@@H](CO)C(=O)N[C@H](C(=O)N1CCC[C@H]1C(=O)N[C@H](C(=O)NCC(=O)N[C@@H](CO)C(=O)N[C@@H](CC(N)=O)C(=O)N[C@H](C(=O)N[C@@H](Cc1ccc(O)cc1)C(N)=O)[C@@H](C)O)C(C)C)[C@@H](C)O
notes: Analogue of human amylin; also called compound 73
Usually IC50 stands for the concentration that gives 50% inhibition. For the molecule B1, the IC50 in assay [1] came to 0.283 nM; with rat calcitonin receptor [4] it was 50.3 nM. Moreover, in assay [2], the “Ratio hCT/hAmylin binding” value came out at 51.7. In addition, in the assay with rat calcitonin receptor [3], the “Ratio rCT/rAmylin binding” value came out at 178.

B2: N^ε1-[2-[2-[2-[[(4S)-4-carboxy-4-(19-carboxynonadecanoylamino)butanoyl]amino]ethoxy]ethoxy]acetyl]-[Thr14,Arg17,Pro21,Pro27,Pro31]-h-amylin (peptide)
peptide: K([AEEA-γGlu-C20 diacid])CNTATCATQRLATFLRHSSPNFGAIPSSTPVGSNTY-NH2
modifications: disulfide 2-7; N-terminus assumed
SMILES: CC[C@H](C)[C@H](NC(=O)[C@H](C)NC(=O)CNC(=O)[C@H](Cc1ccccc1)NC(=O)[C@H](CC(N)=O)NC(=O)[C@@H]1CCCN1C(=O)[C@H](CO)NC(=O)[C@H](CO)NC(=O)[C@H](Cc1c[nH]cn1)NC(=O)[C@H](CCCNC(=N)N)NC(=O)[C@H](CC(C)C)NC(=O)[C@H](Cc1ccccc1)NC(=O)[C@@H](NC(=O)[C@H](C)NC(=O)[C@H](CC(C)C)NC(=O)[C@H](CCCNC(=N)N)NC(=O)[C@H](CCC(N)=O)NC(=O)[C@@H](NC(=O)[C@H](C)NC(=O)[C@@H]1CSSC[C@H](NC(=O)[C@@H](N)CCCCNC(=O)COCCOCCNC(=O)CC[C@H](NC(=O)CCCCCCCCCCCCCCCCCCC(=O)O)C(=O)O)C(=O)N[C@@H](CC(N)=O)C(=O)N[C@@H]([C@@H](C)O)C(=O)N[C@@H](C)C(=O)N[C@@H]([C@@H](C)O)C(=O)N1)[C@@H](C)O)[C@@H](C)O)C(=O)N1CCC[C@H]1C(=O)N[C@@H](CO)C(=O)N[C@@H](CO)C(=O)N[C@H](C(=O)N1CCC[C@H]1C(=O)N[C@H](C(=O)NCC(=O)N[C@@H](CO)C(=O)N[C@@H](CC(N)=O)C(=O)N[C@H](C(=O)N[C@@H](Cc1ccc(O)cc1)C(N)=O)[C@@H](C)O)C(C)C)[C@@H](C)O
notes: Analogue of human amylin; also called compound 75
Regarding B2, the IC50 in assay [1] came out at 4.03 nM; with rat calcitonin receptor [4], 442 nM. For the same molecule, the “Ratio hCT/hAmylin binding” value in assay [2] came to 91.4. In addition, the “Ratio rCT/rAmylin binding” value with rat calcitonin receptor [3] came to 110.

B3: N^ε1-[(4S)-4-carboxy-4-(19-carboxynonadecanoylamino)butanoyl]-[Arg14,Arg17,Pro21,Pro27,Pro34]-h-amylin (peptide)
peptide: K([γGlu-C20 diacid])CNTATCATQRLARFLRHSSPNFGAIPSSTNVGPNTY-NH2
modifications: disulfide 2-7; N-terminus assumed
SMILES: CC[C@H](C)[C@H](NC(=O)[C@H](C)NC(=O)CNC(=O)[C@H](Cc1ccccc1)NC(=O)[C@H](CC(N)=O)NC(=O)[C@@H]1CCCN1C(=O)[C@H](CO)NC(=O)[C@H](CO)NC(=O)[C@H](Cc1c[nH]cn1)NC(=O)[C@H](CCCNC(=N)N)NC(=O)[C@H](CC(C)C)NC(=O)[C@H](Cc1ccccc1)NC(=O)[C@H](CCCNC(=N)N)NC(=O)[C@H](C)NC(=O)[C@H](CC(C)C)NC(=O)[C@H](CCCNC(=N)N)NC(=O)[C@H](CCC(N)=O)NC(=O)[C@@H](NC(=O)[C@H](C)NC(=O)[C@@H]1CSSC[C@H](NC(=O)[C@@H](N)CCCCNC(=O)CC[C@H](NC(=O)CCCCCCCCCCCCCCCCCCC(=O)O)C(=O)O)C(=O)N[C@@H](CC(N)=O)C(=O)N[C@@H]([C@@H](C)O)C(=O)N[C@@H](C)C(=O)N[C@@H]([C@@H](C)O)C(=O)N1)[C@@H](C)O)C(=O)N1CCC[C@H]1C(=O)N[C@@H](CO)C(=O)N[C@@H](CO)C(=O)N[C@H](C(=O)N[C@@H](CC(N)=O)C(=O)N[C@H](C(=O)NCC(=O)N1CCC[C@H]1C(=O)N[C@@H](CC(N)=O)C(=O)N[C@H](C(=O)N[C@@H](Cc1ccc(O)cc1)C(N)=O)[C@@H](C)O)C(C)C)[C@@H](C)O
notes: Analogue of human amylin; also called compound 65
Turning to B3, the IC50 in assay [1] came out at 1.16 nM; with rat calcitonin receptor [4] it was 108 nM. For the same molecule, the “Ratio hCT/hAmylin binding” value in assay [2] was found to be 82.4. For the same molecule, the “Ratio rCT/rAmylin binding” value with rat calcitonin receptor [3] was found to be 93.2.

B4: N^ε1-[(4S)-4-carboxy-4-(19-carboxynonadecanoylamino)butanoyl]-[Arg14,Arg17,Pro21,Pro27,Pro31]-h-amylin (peptide)
peptide: K([γGlu-C20 diacid])CNTATCATQRLARFLRHSSPNFGAIPSSTPVGSNTY-NH2
modifications: disulfide 2-7; N-terminus assumed
SMILES: CC[C@H](C)[C@H](NC(=O)[C@H](C)NC(=O)CNC(=O)[C@H](Cc1ccccc1)NC(=O)[C@H](CC(N)=O)NC(=O)[C@@H]1CCCN1C(=O)[C@H](CO)NC(=O)[C@H](CO)NC(=O)[C@H](Cc1c[nH]cn1)NC(=O)[C@H](CCCNC(=N)N)NC(=O)[C@H](CC(C)C)NC(=O)[C@H](Cc1ccccc1)NC(=O)[C@H](CCCNC(=N)N)NC(=O)[C@H](C)NC(=O)[C@H](CC(C)C)NC(=O)[C@H](CCCNC(=N)N)NC(=O)[C@H](CCC(N)=O)NC(=O)[C@@H](NC(=O)[C@H](C)NC(=O)[C@@H]1CSSC[C@H](NC(=O)[C@@H](N)CCCCNC(=O)CC[C@H](NC(=O)CCCCCCCCCCCCCCCCCCC(=O)O)C(=O)O)C(=O)N[C@@H](CC(N)=O)C(=O)N[C@@H]([C@@H](C)O)C(=O)N[C@@H](C)C(=O)N[C@@H]([C@@H](C)O)C(=O)N1)[C@@H](C)O)C(=O)N1CCC[C@H]1C(=O)N[C@@H](CO)C(=O)N[C@@H](CO)C(=O)N[C@H](C(=O)N1CCC[C@H]1C(=O)N[C@H](C(=O)NCC(=O)N[C@@H](CO)C(=O)N[C@@H](CC(N)=O)C(=O)N[C@H](C(=O)N[C@@H](Cc1ccc(O)cc1)C(N)=O)[C@@H](C)O)C(C)C)[C@@H](C)O
notes: Analogue of human amylin; also called compound 63
In the case of B4, the results for the IC50 (in assay [1]; with rat calcitonin receptor [4]) were 3.48 nM and 124 nM, respectively. Moreover, the “Ratio hCT/hAmylin binding” value in assay [2] was found to be 157. In the assay with rat calcitonin receptor [3], the “Ratio rCT/rAmylin binding” value amounted to 35.6.
